Source: US20220089704A1 (Biogen, published 2022)

Tests used:
[1] = molecular target: T1, Human alpha-synuclein (human, UniProt P37840 1-140); test: direct binding ELISA, plates coated with human alpha-synuclein, anti-hIgG-HRP detection
Source text: (§1) FIG. 46A is a graph showing alpha-synuclein direct binding ELISA. Human alpha-synuclein was coated on ELISA plates, treated with several dilutions of test reagents, and antibody binding at the indicated concentrations was detected with an HRP conjugated anti-hIgG secondary, measured by absorbance at 450 nm.

[2] = molecular target: T1, Human alpha-synuclein; test: direct binding ELISA, plates coated with human alpha-synuclein; 12F4 hIgG1 as reference
Source text: as §1

binding result [1] | binding result [2] | Binder
binds | – | FC5-H62(T33C/A104C)-12F4(LC) hIgG1 (bispecific antibody, also called hFC5.2-12F4(LC) hIgG1; FC5-H62(T33C/A104C)-12F4 hIgG1) heavy: not shown light: DVQLVESGGGLVQPGGSLRLSCAASGFKITHYCTGWFRQAPGKEREFVSRITWGGDNTFYSNSVKGRFTISRDNSKNTVYLQMNSLRAEDTAVYYCAAGSTSTCTPLRVDYWGQGTLVTVSSGGGGSSYELTQPPSVSVSPGQTARITCSGEALPMQFAHWYQQRPGKAPVIVVYKDSERPSGVPERFSGSSSGTTATLTITGVQAEDEADYYCQSPDSTNTYEVFGGGTKLTVLSQPKAAPSVTLFPPSSEELQANKATLVCLISDFYPGAVTVAWKADSSPVKAGVETTTPSKQSNNKYAASSYLSLTPEQWKSHRSYSCQVTHEGSTVEKTVAPTECS
binds | – | FC5-H62(T33C/A104C)-12F4(LC) hIgG1 agly (N297Q) (bispecific antibody, also called FC5-H62(T33C/A104C)-12F4 hIgG1 agly) heavy: not shown light: DVQLVESGGGLVQPGGSLRLSCAASGFKITHYCTGWFRQAPGKEREFVSRITWGGDNTFYSNSVKGRFTISRDNSKNTVYLQMNSLRAEDTAVYYCAAGSTSTCTPLRVDYWGQGTLVTVSSGGGGSSYELTQPPSVSVSPGQTARITCSGEALPMQFAHWYQQRPGKAPVIVVYKDSERPSGVPERFSGSSSGTTATLTITGVQAEDEADYYCQSPDSTNTYEVFGGGTKLTVLSQPKAAPSVTLFPPSSEELQANKATLVCLISDFYPGAVTVAWKADSSPVKAGVETTTPSKQSNNKYAASSYLSLTPEQWKSHRSYSCQVTHEGSTVEKTVAPTECS
binds | – | FC5-H62(T33C/A104C)-12F4(LC) hIgG2 SAA (bispecific antibody) heavy: EVQLVESGGGLVEPGGSLRLSCAVSGFDFEKAWMSWVRQAPGQGLQWVARIKSTADGGTTSYAAPVEGRFIISRDDSRNMLYLQMNSLKTEDTAVYYCTSAHWGQGTLVTVSSASTKGPSVFPLAPCSRSTSESTAALGCLVKDYFPEPVTVSWNSGALTSGVHTFPAVLQSSGLYSLSSVVTVPSSNFGTQTYTCNVDHKPSNTKVDKTVERKSCVECPPCPAPPAAAPSVFLFPPKPKDTLMISRTPEVTCVVVDVSHEDPEVQFNWYVDGVEVHNAKTKPREEQFNSTFRVVSVLTVVHQDWLNGKEYKCKVSNKGLPAPIEKTISKTKGQPREPQVYTLPPSREEMTKNQVSLTCLVKGFYPSDIAVEWESNGQPENNYKTTPPMLDSDGSFFLYSKLTVDKSRWQQGNVFSCSVMHEALHNHYTQKSLSLSPG light: DVQLVESGGGLVQPGGSLRLSCAASGFKITHYCTGWFRQAPGKEREFVSRITWGGDNTFYSNSVKGRFTISRDNSKNTVYLQMNSLRAEDTAVYYCAAGSTSTCTPLRVDYWGQGTLVTVSSGGGGSSYELTQPPSVSVSPGQTARITCSGEALPMQFAHWYQQRPGKAPVIVVYKDSERPSGVPERFSGSSSGTTATLTITGVQAEDEADYYCQSPDSTNTYEVFGGGTKLTVLSQPKAAPSVTLFPPSSEELQANKATLVCLISDFYPGAVTVAWKADSSPVKAGVETTTPSKQSNNKYAASSYLSLTPEQWKSHRSYSCQVTHEGSTVEKTVAPTECS
binds | – | FC5-H62(T33C/A104C)-12F4(LC) hIgG4P/G1 agly (bispecific antibody) heavy: EVQLVESGGGLVEPGGSLRLSCAVSGFDFEKAWMSWVRQAPGQGLQWVARIKSTADGGTTSYAAPVEGRFIISRDDSRNMLYLQMNSLKTEDTAVYYCTSAHWGQGTLVTVSSASTKGPSVFPLAPCSRSTSESTAALGCLVKDYFPEPVTVSWNSGALTSGVHTFPAVLQSSGLYSLSSVVTVPSSSLGTKTYTCNVDHKPSNTKVDKRVESKYGPPCPPCPAPEFLGGPSVFLFPPKPKDTLMISRTPEVTCVVVDVSQEDPEVQFNWYVDGVEVHNAKTKPREEQFQSTYRVVSVLTVLHQDWLNGKEYKCKVSNKGLPSSIEKTISKAKGQPREPQVYTLPPSRDELTKNQVSLTCLVKGFYPSDIAVEWESNGQPENNYKTTPPVLDSDGSFFLYSKLTVDKSRWQQGNVFSCSVMHEALHNHYTQKSLSLSPG light: DVQLVESGGGLVQPGGSLRLSCAASGFKITHYCTGWFRQAPGKEREFVSRITWGGDNTFYSNSVKGRFTISRDNSKNTVYLQMNSLRAEDTAVYYCAAGSTSTCTPLRVDYWGQGTLVTVSSGGGGSSYELTQPPSVSVSPGQTARITCSGEALPMQFAHWYQQRPGKAPVIVVYKDSERPSGVPERFSGSSSGTTATLTITGVQAEDEADYYCQSPDSTNTYEVFGGGTKLTVLSQPKAAPSVTLFPPSSEELQANKATLVCLISDFYPGAVTVAWKADSSPVKAGVETTTPSKQSNNKYAASSYLSLTPEQWKSHRSYSCQVTHEGSTVEKTVAPTECS
– | binds | 12F4 hIgG1 (antibody, V domains shown, also called anti-alpha synuclein (12F4); 12F4 without FC5 attached) VH: EVQLVESGGGLVEPGGSLRLSCAVSGFDFEKAWMSWVRQAPGQGLQWVARIKSTADGGTTSYAAPVEGRFIISRDDSRNMLYLQMNSLKTEDTAVYYCTSAHWGQGTLVTVSS VL: SYELTQPPSVSVSPGQTARITCSGEALPMQFAHWYQQRPGKAPVIVVYKDSERPSGVPERFSGSSSGTTATLTITGVQAEDEADYYCQSPDSTNTYEVFGGGTKLTVLS
